US20220162320A1 (published 2022)
Values belong to the binder of their own block, whether it stands above or below them.

Key:
[1] = molecular target: HLA-PEPTIDE target G10: HLA-A*01:01_…, recombinant soluble complex (human, enzymatically biotinylated (BirA)); assay: phage display, scFv ELISA on pHLA against negative control pHLAs
[2] = molecular target: HLA-A*02:01 (alpha chain with beta-2 microglobulin), recombinant (human); assay: conditional ligand exchange, stability ELISA
[3] = molecular target: T1, HLA-PEPTIDE target G2: HLA-A*01:01_…, recombinant soluble complex (human, enzymatically biotinylated (BirA)); assay: BLI, antibody from 100 nM in 1:2 steps, 1:1 model; apparent KD
T1 construct: also called G2-pHLA

[4] = molecular target: T1, HLA-PEPTIDE target G2: HLA-A*01:01_…, …; assay: BLI
[5] = molecular target: T2, HLA-A*01:01_… (G2) presented on cells (human); assay: flow cytometry on pulsed K562 cells, against off target peptide [..] and unpulsed cells
T2 construct: whole, on cells

[6] = molecular target: T3, HLA-B*35:01 (alpha chain with beta-2 microglobulin), recombinant (human); assay: conditional ligand exchange, stability ELISA
T3 construct: also called HLA complex of the conditional ligand exchange / stability ELISA

B1: scFv G10(5C08) (scFv, V domains shown)
VH: QVQLVQSGAEVKKPGASVKVSCKASGYNFTGYYMHWVRQAPGQGLEWMGIIAPSDGSTNYAQKFQGRVTMTRDTSTSTVYMELSSLRSEDTAVYYCARETGDDAFDIWGQGTMVTVSS
VL: not shown
binding result [1]: binds

Binder: LLASSILCA (also called G7 peptide) [peptide LLASSILCA]
binding result [2]: binds

B2: 4-G2(1H11)-OKT3 (bispecific antibody, human IgG1, kappa, N297Q)
chain: not shown
heavy: not shown
light: QIVLTQSPAIMSASPGEKVTMTCSASSSVSYMNWYQQKSGTSPKRWIYDTSKLASGVPAHFRGSGSGTSYSLTISGMEAEDAATYYCQQWSSNPFTFGSGTKLEINRTVAAPSVFIFPPSDEQLKSGTASVVCLLNNFYPREAKVQWKVDNALQSGNSQESVTEQDSKDSTYSLSSTLTLSKADYEKHKVYACEVTHQGLSSPVTKSFNRGEC
notes: also called format #4 (scFv/scFv-Fab): scFv G2(1H11), Fab OKT3
Kd [3]: 1.27 nM

Results, then the binder that gave them:

binding result [4]: binds
binding result [5]: binds
B3: 3-G2(1H11)-hOKT3 (bispecific antibody, human IgG1, kappa, N297Q)
chain: not shown
heavy: QVQLVQSGAEVKKPGASVKVSCKASGYTFTRYTMHWVRQAPGQGLEWMGYINPSRGYTNYNQKFKDRVTLTTDKSSSTAYMELSSLRSEDTAVYYCARYYDDHYSLDYWGQGTLVTVSSASTKGPSVFPLAPSSKSTSGGTAALGCLVKDYFPEPVTVSWNSGALTSGVHTFPAVLQSSGLYSLSSVVTVPSSSLGTQTYICNVNHKPSNTKVDKRVEPKSCDKTHTCPPCPAPELLGGPSVFLFPPKPKDTLMISRTPEVTCVVVDVSHEDPEVKFNWYVDGVEVHNAKTKPREEQYQSTYRVVSVLTVLHQDWLNGKEYKCKVSNKALPAPIEKTISKAKGQPREPQVCTLPPSREEMTKNQVSLSCAVKGFYPSDIAVEWESNGQPENNYKTTPPVLDSDGSFFLVSKLTVDKSRWQQGNVFSCSVMHEALHNRFTQKSLSLSPGK
light: DIQMTQSPSSLSASVGDRVTITCSASSSVSYMNWYQQKPGKAPKRLIYDTSKLASGVPSRFSGSGSGTDFTLTISSLQPEDFATYYCQQWSSNPFTFGQGTKLEIKRTVAAPSVFIFPPSDEQLKSGTASVVCLLNNFYPREAKVQWKVDNALQSGNSQESVTEQDSKDSTYSLSSTLTLSKADYEKHKVYACEVTHQGLSSPVTKSFNRGEC
notes: also called 3-hOKT3-G2(1H11)

binding result [1]: binds
B4: scFv G10(5A08) (scFv, V domains shown)
VH: QVQLVQSGAEVKKPGSSVKVSCKASGGTFNNFAISWVRQAPGQGLEWMGGIIPIFDATNYAQKFQGRVTFTADESTSTAYMELSSLRSEDTAVYYCARGEYSSGFFFVGWFDLWGRGTQVTVSS
VL: not shown
notes: also called G10(5A8); scFv-G10-P5A08

binding result [6]: binds
Binder: EVDPIGHVY (also called G5 peptide) [peptide EVDPIGHVY]
